Key:
[1] = target: 1433g_human YWHAG (UniProt P61981)
[2] = target: 1433g_human YWHAG (UniProt P61981); remark: listed apart in the source

UniProt P61981, sequence (P61981 whole entry): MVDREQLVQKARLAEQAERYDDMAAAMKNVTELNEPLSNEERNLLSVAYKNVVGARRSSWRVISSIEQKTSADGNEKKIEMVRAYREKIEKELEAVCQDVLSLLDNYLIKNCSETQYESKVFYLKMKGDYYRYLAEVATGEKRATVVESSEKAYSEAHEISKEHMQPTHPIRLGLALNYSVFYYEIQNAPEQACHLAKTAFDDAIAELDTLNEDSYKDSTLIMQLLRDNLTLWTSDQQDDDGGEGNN

| Substance | effect of a mutation on the interaction [1] | effect of a mutation on the interaction [2] |
| --- | --- | --- |
| Leucine-rich repeat serine/threonine-protein kinase 2 (Homo sapiens), Q5S007 R1441H | decreasing interaction strength |  |
| Leucine-rich repeat serine/threonine-protein kinase 2 (Homo sapiens), Q5S007 R1441G | decreasing interaction strength | with no effect |
| Leucine-rich repeat serine/threonine-protein kinase 2 (Homo sapiens), Q5S007 R1441C | decreasing interaction strength |  |

Source: IntAct's records for PubMed 28202711
